Measured values published in US20240317871A1 (IMMUNOMIC THERAPEUTICS, published 2024).

B1: Ab_061 (H5S19-13A16B) (antibody, V domains shown)
VH: QIQLVQSGPELKKPGETVKISCKASGYTFTNFGVNWVKQAPGKGLKWMGWINTYTGEPTYADDFKGRFAFSLETSASTAYLRINNLKNEDTATYFCARSYYANYAYWGQGTTLTVSS
VL: QIVLTQSPAIMSASPGEKVTLTCSASSSVDSSYLYWYQQKPGSSPKLWIYGTSNLASGVPARFSGSGSGTSYSLTISSMEAEDAASYFCHQWNSYPWTFGGGTKLEIK
notes: also called Ab_61
B2: Ab_075 (H5S20-12A10A) (antibody, V domains shown)
VH: QIQLVQSGPELKKPGETVKISCKASGYTFTNFGMNWVRQAPGKGLKWMGWINTYTGEPTYADDFKGRFAFSLETSASTAYLQINNLKNDDMATYFCARSLYGNRDYWGQGTTLTVSS
VL: QIVLTQSPAIMSASLGEEITLTCSASSSVSYMHWYQQRSGTSPKLLIYSTSNLASGVPSRFSGSGSGTFYSLTISSVEAEDAADYYCHQWSSYRTFGGGTKLEIK
notes: also called Ab_75
B3: Ab_060 (H5S19-8A16A) (antibody, V domains shown)
VH: QIQLVQSGPELKKPGETVKISCKASGYTFTNFGVNWVKQAPGKGLKWMGWINTYTGEPTYADDFKGRFAFSLETSASTAYLRINNLKNEDTASYFCARSYYANNAYWGQGTTLTVSS
VL: QIVLTQSPAIMSASPGEKVTLTCSASSSVDSSYLYWFQQKPGSSPKLWIYGTSNLASGVPARFSGSGSGTSYSLTISSMEAEDAASYFCHQWNSYPWTFGGGTKLEIK
notes: also called Ab_60
B4: Ab_062 (H5S19-16A18A) (antibody, V domains shown)
VH: QIQLVQSGPELKKPGETVKISCKASGYTFTNFGVNWVKQAPGKGLKWMGWINTYTGEPTYADDFKGRFAFSLETSASTAYLQINNLKNEDTATYFCVRSYYGNSGYWGQGTTLTVSS
VL: QIVLTQSPAIMSTSPGEKVTLTCSASSSVSSSYLYWYQQKPGSSPKLWIYSTSNLASGVPARFSGSGSGTSYSLTISSMEAEDAASYFCHQWSTYPWTFGGGTKLEIK
notes: also called Ab_62
B5: Ab_042 (H5S15-28A23A) (antibody, V domains shown)
VH: QVQLQQSGAELVKPGASVKMSCKAFGYTFTTYPIEWMKQNHGKSLEWIGNFHPYNDDTKYNEKFKGKAKLTVEKSSSTVYLELSRLTSDDSAVYYCARGGFAYWGQGTLVTVSA
VL: DVVMTQTPLSLPVSLGDQASISCRSSQSLVHSNGNTYLHWYLQKPGQSPKLLIYKVSNRFSGVPDRFSGSGSGTDFTLKISRVEAEDLGVYFCSQSTHVPFTFGSGTKLEIK
notes: also called Ab_42
B6: Ab_037 (H5S15-13A15A) (antibody, V domains shown)
VH: QVQLKQSGPGLVQPSQSLSITCTVSGFSLTSYGVHWVRQSPGKGLEWLGVIWRGGSTDYNAAFMSRLSITKDNSKSQVFFKMNSLQADDTAIYYCAKTGFAYWGQGTLVTVSA
VL: QIVLTQSPAIMSASPGEKVTMTCSASSSVSYMHWYQQKSGTSPKRWIYDTSKLASGVPARFSGSGSGTSYSLTISSMEAEDAATYYCQQWSSNPLTFGAGTKLELK
notes: also called Ab_37
B7: Ab_032 (H5S15-7A8A) (antibody, V domains shown)
VH: QIQLVQSGPELKKPGETVKISCKASGYTFTNYGMNWVKQAPGKGLKWVGWINTYTGEPTYAEDFKGRFAFSLETSASTAYLQINNLKNEDMATYFCARSFYGSEAYWGQGTLVTVSA
VL: QIVLTQSPAIMSASLGEEITLTCSASSSVSFMHWYQQKSGTSPKLLIYSTSNLASGVPSRFSGSGSGTFYSLTISSVEAEDAADYYCHQWSSYLWTFGGGAKLEIK
notes: also called Ab_32
B8: Ab_076 (H5S20-26A22A) (antibody, V domains shown)
VH: QIQLVQSGPELKKPGETVKISCRASGYTFTNYGMNWVKQAPGKGLKWMGWINTYTGEPTYADDFKGRFAFSLETSASSAYLQINNLKNEDMATYFCARSLYYGDNYEAYWGQGTLVTVSA
VL: QIVLTQSPAIMSASLGEEITLTCSASSSVSYMHWYQQKSGSSPKLLIYTTSNLASGVPSRFSGSGSGTFYSLTISSVEAEDAADYYCHQWSSYTWTFGGGTKLEIK
notes: also called Ab_76
B9: Ab_033 (H5S15-7B8A) (antibody, V domains shown)
VH: QIQLVQSGPELKKPGETVKISCKASGYTFTNYGMNWVKQAPGKGLKWVGWINTYTGEPTYADDFKGRFAFSLETSASTAYLQINNLKNEDMATYFCARSFYGSEAYWGQGTLVTVSA
VL: QIVLTQSPAIMSASLGEEITLTCSASSSVSFMHWYQQKSGTSPKLLIYSTSNLASGVPSRFSGSGSGTFYSLTISSVEAEDAADYYCHQWSSYLWTFGGGAKLEIK
notes: also called Ab_33
B10: Ab_048 (H5S19-24A22A) (antibody, V domains shown)
VH: QVQLQQSGGELLRPGTSVKVSCKASGYAFTNYLIEWVKQRPGQGLEWIGVINPGSGGIYYKEKFKDKAILTADKSSSTAYMQLSSLTSDDSAVYFCARGDAMDFWGQGTSVTVSS
VL: DAVMTQTPLSLTVSLGDQASISCRSSQTLENTNGNTYLNWYLQKPGQSPQLLIYRVSNRFSGVLDRFSGSGSGTDFTLKISRVEAEDLGVYFCLQVTHVPYTFGGGTKLEIK
notes: also called Ab_48
B11: Ab_081 (H5S20-44A32A) (antibody, V domains shown)
VH: EVKLVESGGGLVQPGGSLKLSCAASGFTFSSYTMSWVRQTPEKRLEWVAYISNGGGSTYYPDTVKGRFTISRDNAKNTLYLQMSSLKSEDTAMYYCARHRGYGSSYNYAMDYWGQGTSVTVSS
VL: DIVMTQSQKFMSTSVGDRVSVTCKASQNVGTNVAWYQQKPGQSPKALIYSASYRYSGVPDRFTGSGSGTDFTLTISNVQSEDLAEYFCQQYNSYPFTFGSGTKLEIK
notes: also called Ab_81
B12: Ab_040 (H5S15-23A21A) (antibody, V domains shown)
VH: EVQLQQSGTVLARPGASVKMSCKASGYTFTSFWMHWVKQRPGQGLEWIGAISPGNSETTYNQKFTGKAKLTAVTSTSTAYMELSSLTNEDSAVYYCTKIYYDYDDGYWGQGTTLTVSS
VL: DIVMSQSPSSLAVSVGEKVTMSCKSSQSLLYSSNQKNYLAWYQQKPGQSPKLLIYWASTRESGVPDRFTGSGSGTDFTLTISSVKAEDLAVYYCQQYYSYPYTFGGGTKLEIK
notes: also called Ab_40
B13: Ab_024 (H5S15-1A1A) (antibody, V domains shown)
VH: EVQLQQSGAELVKPGASVKLSCTASGFNIKDTYMHWVKQRPEQGLAWIGRIAPANGYTKYDPKFQGKATITTDTSSNTAYLHLSRLTSEDTAVYYCANYFGNTYDWFAFWGQGTLVTVSA
VL: ENVLTQSPAIMSASPGEKVTMTCSAGSSVSYMHWYQQKSSTSPKLWIYDTSKLPSGVPGRFSGSGSGNSYSLTISSMEAEDVATYYCFQGSGFPLTFGSGTKLEIK
notes: also called Ab_24
B14: Ab_039 (H5S15-21A19A) (antibody, V domains shown)
VH: QIQLVQSGPDLKKPGETVKISCKASGYTFTNYGMNWVKQAPGKDLKWMGWINTYTGEPTYADDFKGRFAFSLETSASTAYLQINNLKNDDTATYFCARSINYDSDEKWGQGTSVTVSS
VL: QIVLTQSPAIMSASLGERVTLTCTASSSVSSSYLHWYQQKPGSSPKLWIYDTSNLASGVPARFSGSGSGTSYSLTISSMEAEDAATYYCHQYHRSQWTFGGGTKLEIK
notes: also called Ab_39
B15: Ab_041 (H5S15-27A22A) (antibody, V domains shown)
VH: EVQLQQSGAELVKPGASVKLSCTASGFNIKDTYMHWVKQRPEQGLEWIGRIDPANGNTKYDPKFQGKATITADTSSNTAYLQLSSLTSEDTAVYYCARSRRYFDVWGAGTTVTVSS
VL: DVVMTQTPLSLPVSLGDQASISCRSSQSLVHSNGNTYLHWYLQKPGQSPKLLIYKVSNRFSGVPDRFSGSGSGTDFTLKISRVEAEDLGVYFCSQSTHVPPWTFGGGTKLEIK
notes: also called Ab_41
B16: Ab_023 (H5S14-27A23A) (antibody, V domains shown)
VH: EVKLDETGGGLVQPGRPMKLSCVASGFTFSDYWMNWVRQSPEKGLEWVAQIRNKPYNYETYYSDSVKGRFTISRDDSKSSVYLQMNNLRAEDMGIYYCTWGNYWGQGTTLTVSS
VL: DIKMTQSPSSMYASLGERVTITCKASQDINSYLSWFQQKPGKSPKTLIYRANRLVDGVPSRFSGSGSGQDYSLTISSLEYEDMGIYYCLQYDEFPWTFGGGTKLEIK
notes: also called Ab_23
B17: Ab_038 (H5S15-19A18A) (antibody, V domains shown)
VH: QVQLKESGPGLVAPSQSLSITCTVSGFSLTGYGVNWVRQPPGKGLEWLGMIWGDGGTDYNSALKSRLSISKDNSKSQVFLKMNSLQTDDTARYYCARDNYHTVVNGDYWGQGTSVTVSS
VL: ENVLTQSPAIMSASPGEKVTMTCRASSSVSSSYLHWYQQKSGASPKLWIYSTSNLASGVPARFSGSGSGTSYSLTISSVEAEDAATYYCQQYSGYPLTFGGGTKLEIK
notes: also called Ab_38
B18: Ab_047 (H5S15-36A32A) (antibody, V domains shown)
VH: EVQLQQSGAELVKPGASVKLSCTASGFNIKDTYMHWVKQRPEQGLEWIGRIDPANGNTKYDPKFQGKATITADTSSNTAYLQLSSLTSEDTAVYYCARPYGNYGFAYWGQGTLVTVSA
VL: DIQMTQSPASLSASVGETVTITCRASGNIHNYLAWYQQKQGKSPQLLVYNAKTLADGVPSRFSGSGSGTQYSLKINSLQPEDFGSYYCQHFWSTFTFGSGTKLEIK
notes: also called Ab_47

Tests used:
Experiment in all cases: ELISA
[1] = molecular target: T1, human HVEM (human, UniProt Q92956 39-202, limits assumed)
T1 sequence (looked up): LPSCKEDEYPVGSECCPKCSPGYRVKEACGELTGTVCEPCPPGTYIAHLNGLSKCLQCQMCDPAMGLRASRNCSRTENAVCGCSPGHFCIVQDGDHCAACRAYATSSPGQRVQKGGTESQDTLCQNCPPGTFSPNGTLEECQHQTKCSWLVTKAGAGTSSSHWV

[2] = molecular target: T2, cynomolgus monkey HVEM (cynomolgus monkey, UniProt A0A2K5W0R1 39-203)
T2 sequence: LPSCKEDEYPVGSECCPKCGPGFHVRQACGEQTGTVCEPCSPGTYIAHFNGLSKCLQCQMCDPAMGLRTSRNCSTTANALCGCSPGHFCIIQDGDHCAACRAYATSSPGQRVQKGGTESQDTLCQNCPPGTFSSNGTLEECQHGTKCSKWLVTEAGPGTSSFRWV

[3] = molecular target: T3, murine HVEM (murine, UniProt Q80WM9 39-206, limits assumed)
T3 construct: also called Mouse
T3 sequence (looked up): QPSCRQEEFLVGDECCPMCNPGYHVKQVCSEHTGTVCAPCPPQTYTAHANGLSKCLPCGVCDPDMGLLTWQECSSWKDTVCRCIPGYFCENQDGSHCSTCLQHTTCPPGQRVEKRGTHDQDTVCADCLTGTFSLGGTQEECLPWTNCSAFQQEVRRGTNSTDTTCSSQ
Note: test concentration or dose not given here.

Row | Binder | ELISA signal [1] | ELISA signal [2] | ELISA signal [3]
1 | B1 | 2.98 | 3.03 | 0.043
2 | B2 | 3.04 | 3.04 | 0.048
3 | B3 | 3.09 | 3.03 | 0.044
4 | B4 | 2.95 | 2.98 | 0.045
5 | B5 | 0.049 | 0.062 | 0.046
6 | B6 | 0.059 | 0.06 | 0.043
7 | B7 | 3.04 | 2.87 | 0.045
8 | B8 | 2.89 | 2.96 | 0.044
9 | B9 | 3.1 | 3.02 | 0.043
10 | B10 | 2.5 | 0.826 | 0.044
11 | B11 | 1.59 | 0.076 | 0.048
12 | B12 | 0.069 | 0.098 | 0.05
13 | B13 | 0.048 | 0.063 | 0.044
14 | B14 | 2.87 | 3.03 | 0.042
15 | B15 | 0.059 | 0.076 | 0.045
16 | B16 | 0.045 | 0.057 | 0.042
17 | B17 | 0.049 | 0.06 | 0.043
18 | B18 | 1.19 | 0.743 | 0.051
